Molecular target: DNA polymerase theta helicase domain (Polθ-hel, residues 1–894) (human), O75417
Test: cryo-EM structure
Settings: remark: other sources report otherwise

B1: DNA polymerase theta helicase domain (Polθ-hel, residues 1–894), O75417 1-894 (domain or fragment)
chain: MNLLRRSGKRRRSESGSDSFSGSGGDSSASPQFLSGSVLSPPPGLGRCLKAAAAGECKPTVPDYERDKLLLANWGLPKAVLEKYHSFGVKKMFEWQAECLLLGQVLEGKNLVYSAPTSAGKTLVAELLILKRVLEMRKKALFILPFVSVAKEKKYYLQSLFQEVGIKVDGYMGSTSPSRHFSSLDIAVCTIERANGLINRLIEENKMDLLGMVVVDELHMLGDSHRGYLLELLLTKICYITRKSASCQADLASSLSNAVQIVGMSATLPNLELVASWLNAELYHTDFRPVPLLESVKVGNSIYDSSMKLVREFEPMLQVKGDEDHVVSLCYETICDNHSVLLFCPSKKWCEKLADIIAREFYNLHHQAEGLVKPSECPPVILEQKELLEVMDQLRRLPSGLDSVLQKTVPWGVAFHHAGLTFEERDIIEGAFRQGLIRVLAATSTLSSGVNLPARRVIIRTPIFGGRPLDILTYKQMVGRAGRKGVDTVGESILICKNSEKSKGIALLQGSLKPVRSCLQRREGEEVTGSMIRAILEIIVGGVASTSQDMHTYAACTFLAASMKEGKQGIQRNQESVQLGAIEACVMWLLENEFIQSTEASDGTEGKVYHPTHLGSATLSSSLSPADTLDIFADLQRAMKGFVLENDLHILYLVTPMFEDWTTIDWYRFFCLWEKLPTSMKRVAELVGVEEGFLARCVKGKVVARTERQHRQMAIHKRFFTSLVLLDLISEVPLREINQKYGCNRGQIQSLQQSAAVYAGMITVFSNRLGWHNMELLLSQFQKRLTFGIQRELCDLVRVSLLNAQRARVLYASGFHTVADLARANIVEVEVILKNAVPFKSARKAVDEEEEAVEERRNMRTIWVTGRKGLTEREAAALIVEEARMILQQDLVEM
B1 showed a percent of particles in the dimeric form of 95% and a percent of particles in the tetrameric form of 5%.
